The text below walks through data of patent US20260209384A1 (Stanford University, published 2026).

Assay [1] addresses T1, recombinant human GPC2 (R&D Systems) (human, UniProt Q8N158 24-554, limits assumed, labelled with Dylight488 or Dylight650 in the flow cytometry assays; unlabelled in the ELISA).
T1 construct: extracellular domain; also called hGPC2; human Glypican-2
T1 sequence (looked up): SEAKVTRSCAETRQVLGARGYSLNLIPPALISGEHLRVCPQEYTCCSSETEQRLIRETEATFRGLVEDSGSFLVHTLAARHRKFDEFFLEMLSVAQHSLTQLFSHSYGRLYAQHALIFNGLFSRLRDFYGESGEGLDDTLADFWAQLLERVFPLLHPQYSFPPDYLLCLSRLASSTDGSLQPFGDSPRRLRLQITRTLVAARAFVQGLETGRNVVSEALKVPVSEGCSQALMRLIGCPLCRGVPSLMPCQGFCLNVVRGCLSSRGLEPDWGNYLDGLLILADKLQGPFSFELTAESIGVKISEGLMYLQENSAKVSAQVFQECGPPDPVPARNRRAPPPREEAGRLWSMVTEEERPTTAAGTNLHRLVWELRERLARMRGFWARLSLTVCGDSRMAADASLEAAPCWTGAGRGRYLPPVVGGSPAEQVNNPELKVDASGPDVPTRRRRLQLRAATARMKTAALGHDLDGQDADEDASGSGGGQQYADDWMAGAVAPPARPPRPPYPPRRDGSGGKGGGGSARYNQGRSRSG
The experiment in a line: flow cytometry, CAR T cells stained with fluorescently labelled recombinant GPC2. The source says: Primary human T cells were isolated from healthy donors using the RosetteSep Human T cell Enrichment kit (Stem Cell Technologies) using buffy coats were derived from the Stanford Blood Center and processed according to the manufacturer's protocol using Lymphoprep density gradient medium and SepMate-50 tubes. Isolated T cells were cryopreserved in CryoStor CS10 cryopreservation medium (Stem Cell Technologies). Cryopreserved T cells were thawed and activated with Human T-Expander CD3/CD28 Dynabeads (Gibco) at a 3:1 beads: cell ratio in AIM-V media supplemented with 5% FBS, 10 mM HEPES, 2 mM 1-glutamine, 100 U/mL penicillin, and 100 μg/mL streptomycin (Gibco) and with 100 IU/ml of recombinant IL-2 (Preprotech). T cells were transduced with retroviral vector on days 2 and 3 post activation and anti-CD3/CD28 beads were removed on day 5. CAR T-cells were maintained at 0.3-1×10⁶ cells per mL in T cell medium with IL2. CAR expression was assessed by Flow Cytometry after incubation with soluble, recombinant, human GPC2 (R&D systems) labelled with Dylight488 or Dylight650. CAR T cells were used for in vitro assays or transferred into mice on day 10 post activation.
Data was collected with an LSR Fortessa X-20 (BD Bioscience) and analyzed using the FlowJo software. Cells were harvested, washed twice with FACS buffer (PBS supplemented with 2% FBS and 0.4% 0.5 M EDTA) and stained for 30 min in the dark on ice. Cells were washed 3 times with FACS buffer after each incubation step. Cells were gated on viable cells and singlet discrimination (FSC-A/FSC-H) was performed before assessment of antigen expression. Semiquantitative assessment of GPC2 antigen density in molecules per cell was estimated using the BD Quantibrite Kit per the manufacturer's protocol.
For orientation: Flow cytometry measures light scatter and fluorescence of single cells or particles in a stream.

Assay [2] concerns the target T2, recombinant murine GPC2 (R&D Systems) (mouse, UniProt Q8BKV1 22-556, limits assumed, labelled with Dylight488 in the flow cytometry assay of FIG. 9B; unlabelled in the ELISA).
T2 construct: Bought recombinant protein; also called mGPC2; mouse GPC2
T2 sequence (looked up): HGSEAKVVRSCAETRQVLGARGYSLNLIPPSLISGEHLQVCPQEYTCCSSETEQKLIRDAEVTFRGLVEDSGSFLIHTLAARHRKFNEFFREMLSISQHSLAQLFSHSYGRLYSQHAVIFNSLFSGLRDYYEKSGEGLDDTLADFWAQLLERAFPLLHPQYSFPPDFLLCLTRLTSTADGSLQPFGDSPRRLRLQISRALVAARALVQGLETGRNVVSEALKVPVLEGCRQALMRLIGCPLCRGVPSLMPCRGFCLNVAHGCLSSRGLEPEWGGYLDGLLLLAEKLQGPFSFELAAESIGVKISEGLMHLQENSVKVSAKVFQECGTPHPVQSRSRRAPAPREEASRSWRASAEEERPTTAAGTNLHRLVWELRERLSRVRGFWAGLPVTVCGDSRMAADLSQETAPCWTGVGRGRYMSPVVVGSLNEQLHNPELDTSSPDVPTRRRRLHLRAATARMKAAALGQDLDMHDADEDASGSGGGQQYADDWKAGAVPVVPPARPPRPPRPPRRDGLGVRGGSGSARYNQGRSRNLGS
The experiment in a line: ELISA, antigen coated on plate, anti-human Fc-HRP detection. Here is the method: (§1) Fully human GPC2.19-IgG1 antibody was transiently expressed in 293 FreeStyle cells. Antibody was isolated from culture supernatant using protein A beads (Fisher). Isolated antibody was washed using PBS and Amicon […] filter columns. Binding of GPC2.19-IgG1 to GPC2 antigen was measured via ELISA. Recombinant human and mouse GPC2 antigens were purchased from R&D Systems, dry milk was from BioRad. All other chemicals were biological grade. High absorbance 96-well ELISA plates were coated with antigen overnight using […] stock solution per well at 2 μg/ml. Experiments were performed at 4° C. Antigen coated plates were blocked using 3% milk in PBS and 0.5% TWEEN® 20 for 2 h. Blocked plates were incubated with one of the tested primary antibodies for 1 hour, washed 5 times (BioTek plate washer) and incubated with anti-human Fc-HRP (Sigma) as the secondary antibody for 1 hour. Secondary antibody was washed five times, the HRP substrate TMB (Sigma) was added and plate was incubated for 3 minutes. TMB oxidation was stopped with 2.5 M sulfuric acid. Plates' absorbance was measured on plate reader (BioRad) at 415 nm.
Background: ELISA stands for enzyme-linked immunosorbent assay.

Assay [3] concerns the target T1, recombinant human GPC2 (R&D Systems). Described as above. Here is the method: as §1
In assay [4] the target is T2, recombinant murine GPC2 (R&D Systems). The experiment in a line: flow cytometry, CAR T cells stained with Dylight488-labelled murine GPC2.

B1: GPC2.19 CAR in VH-L-VL orientation with CD8a hinge-transmembrane domain and 41BBz signaling domain (other)
chain: QLQLQESGPGLVKPSETLSLTCTVSGGSISSSSYYWSWIRQPPGKGLEWIGSIYYSGSTYYNPSLKSRVTISVDTSKNQFSLKLSSVTAADTAVYYCARRVSGHPFDPWGQGTLVTVSSGGGGSGGGASGGGGSDIQMTQSPSSLSASIGDRVTITCQASQDISDYLNWYQQKPGKAPKLLIYDASNLETGVPSRFSGSGSGTDFTFTISSLQPEDVATYYCQQYDNLPITFGQGTKLEIKRATTTPAPRPPTPAPTIASQPLSLRPEACRPAAGGAVHTRGLDFACDIYIWAPLAGTCGVLLLSLVITLYCKRGRKKLLYIFKQPFMRPVQTTQEEDGCSCRFPEEEEGGCELRVKFSRSADAPAYKQGQNQLYNELNLGRREEYDVLDKRRGRDPEMGGKPRRKNPQEGLYNELQKDKMAEAYSEIGMKGERRRGKGHDGLYQGLSTATKDTYDALHMQALPPR
notes: also called GPC2.19 VH-L-VL CAR
Turning to B1, the binding result in assay [1] is “binds”.

B2: GPC2.27 CAR in VH-L-VL orientation with CD8a hinge-transmembrane domain and 41BBz signaling domain (other)
chain: EVQLVESGPGLVKPSETLSLTCAVSGYSISSGYYWGWIRQPPGKGLEWIGSIYHSGSTYYNPSLKSRVTISVDTSKNQFSLKLSSVTAADTAVYYCASLPSRGGFDYWGQGTLVTVSSGGGGSGGGASGGGGSEIVMTQSPATLSASVGDRVTIACRASQTISRYLNWYQQKPGKAPKLLIYAASSLQSGVSSRFSGSGSGTEFTLTISSLQPEDFATYFCQQTYSPPITFGQGTRLEIKRATTTPAPRPPTPAPTIASQPLSLRPEACRPAAGGAVHTRGLDFACDIYIWAPLAGTCGVLLLSLVITLYCKRGRKKLLYIFKQPFMRPVQTTQEEDGCSCRFPEEEEGGCELRVKFSRSADAPAYKQGQNQLYNELNLGRREEYDVLDKRRGRDPEMGGKPRRKNPQEGLYNELQKDKMAEAYSEIGMKGERRRGKGHDGLYQGLSTATKDTYDALHMQALPPR
notes: also called GPC2.27 VH-L-VL CAR
In the case of B2, in assay [1], the binding result is listed as “binds”.

B3: GPC2.27 CAR in VL-L-VH orientation with CD8a hinge-transmembrane domain and 41BBz signaling domain (other)
chain: EIVMTQSPATLSASVGDRVTIACRASQTISRYLNWYQQKPGKAPKLLIYAASSLQSGVSSRFSGSGSGTEFTLTISSLQPEDFATYFCQQTYSPPITFGQGTRLEIKRGGGGSGGGASGGGGSEVQLVESGPGLVKPSETLSLTCAVSGYSISSGYYWGWIRQPPGKGLEWIGSIYHSGSTYYNPSLKSRVTISVDTSKNQFSLKLSSVTAADTAVYYCASLPSRGGFDYWGQGTLVTVSSATTTPAPRPPTPAPTIASQPLSLRPEACRPAAGGAVHTRGLDFACDIYIWAPLAGTCGVLLLSLVITLYCKRGRKKLLYIFKQPFMRPVQTTQEEDGCSCRFPEEEEGGCELRVKFSRSADAPAYKQGQNQLYNELNLGRREEYDVLDKRRGRDPEMGGKPRRKNPQEGLYNELQKDKMAEAYSEIGMKGERRRGKGHDGLYQGLSTATKDTYDALHMQALPPR
notes: also called GPC2.27 VL-L-VH CAR
For B3, in assay [1], the binding result is given as “binds”.

B4: GPC2.19-IgG1 (antibody, V domains shown)
VH: QLQLQESGPGLVKPSETLSLTCTVSGGSISSSSYYWSWIRQPPGKGLEWIGSIYYSGSTYYNPSLKSRVTISVDTSKNQFSLKLSSVTAADTAVYYCARRVSGHPFDPWGQGTLVTVSS
VL: DIQMTQSPSSLSASIGDRVTITCQASQDISDYLNWYQQKPGKAPKLLIYDASNLETGVPSRFSGSGSGTDFTFTISSLQPEDVATYYCQQYDNLPITFGQGTKLEIKR
notes: also called GPC2.IgG1; fully human GPC2.19-IgG1 antibody
On to B4, for which the EC50 in assay [2] and in assay [3] was approximately 1 nM in each case.

B5: GPC2.19VLVH.8aH-8aTM.41BBz (other)
chain: DIQMTQSPSSLSASIGDRVTITCQASQDISDYLNWYQQKPGKAPKLLIYDASNLETGVPSRFSGSGSGTDFTFTISSLQPEDVATYYCQQYDNLPITFGQGTKLEIKRGGGGSGGGASGGGGSQLQLQESGPGLVKPSETLSLTCTVSGGSISSSSYYWSWIRQPPGKGLEWIGSIYYSGSTYYNPSLKSRVTISVDTSKNQFSLKLSSVTAADTAVYYCARRVSGHPFDPWGQGTLVTVSSATTTPAPRPPTPAPTIASQPLSLRPEACRPAAGGAVHTRGLDFACDIYIWAPLAGTCGVLLLSLVITLYCKRGRKKLLYIFKQPFMRPVQTTQEEDGCSCRFPEEEEGGCELRVKFSRSADAPAYKQGQNQLYNELNLGRREEYDVLDKRRGRDPEMGGKPRRKNPQEGLYNELQKDKMAEAYSEIGMKGERRRGKGHDGLYQGLSTATKDTYDALHMQALPPR
notes: also called GPC2.19 CAR; GPC2.8aTM.41BBz CAR
Turning to B5, the binding result in assay [1] and in assay [4] was “binds” in each case.

B6: GPC2.19VLVH.28H-28TM.41BBz (other)
chain: DIQMTQSPSSLSASIGDRVTITCQASQDISDYLNWYQQKPGKAPKLLIYDASNLETGVPSRFSGSGSGTDFTFTISSLQPEDVATYYCQQYDNLPITFGQGTKLEIKRGGGGSGGGASGGGGSQLQLQESGPGLVKPSETLSLTCTVSGGSISSSSYYWSWIRQPPGKGLEWIGSIYYSGSTYYNPSLKSRVTISVDTSKNQFSLKLSSVTAADTAVYYCARRVSGHPFDPWGQGTLVTVSSAAAIEVMYPPPYLDNEKSNGTIIHVKGKHLCPSPLFPGPSKPFWVLVVVGGVLACYSLLVTVAFIIFWVKRGRKKLLYIFKQPFMRPVQTTQEEDGCSCRFPEEEEGGCELRVKFSRSADAPAYKQGQNQLYNELNLGRREEYDVLDKRRGRDPEMGGKPRRKNPQEGLYNELQKDKMAEAYSEIGMKGERRRGKGHDGLYQGLSTATKDTYDALHMQALPPR
notes: also called GPC2.19 CAR with CD28 hinge-transmembrane domains and 41BB costimulatory domain
As for B6, the binding result in assay [1] is “binds”.

B7: GPC2.19VLVH.28H-28TM.28z (other)
chain: DIQMTQSPSSLSASIGDRVTITCQASQDISDYLNWYQQKPGKAPKLLIYDASNLETGVPSRFSGSGSGTDFTFTISSLQPEDVATYYCQQYDNLPITFGQGTKLEIKRGGGGSGGGASGGGGSQLQLQESGPGLVKPSETLSLTCTVSGGSISSSSYYWSWIRQPPGKGLEWIGSIYYSGSTYYNPSLKSRVTISVDTSKNQFSLKLSSVTAADTAVYYCARRVSGHPFDPWGQGTLVTVSSAAAIEVMYPPPYLDNEKSNGTIIHVKGKHLCPSPLFPGPSKPFWVLVVVGGVLACYSLLVTVAFIIFWVRSKRSRLLHSDYMNMTPRRPGPTRKHYQPYAPPRDFAAYRSRVKFSRSADAPAYQQGQNQLYNELNLGRREEYDVLDKRRGRDPEMGGKPRRKNPQEGLYNELQKDKMAEAYSEIGMKGERRRGKGHDGLYQGLSTATKDTYDALHMQALPPR
notes: also called GPC2.28TM.28z CAR; GPC2.19 CAR with CD28 hinge-transmembrane domains and CD28 costimulatory domain
As to B7, in assay [1], the binding result is on record as “binds”.
